Experimental findings from the nanobody polyreactivity screen of Harvey et al. (2022) are described below.

A short description of this data set: yeast display, Sf9 membrane polyspecificity reagent, FACS + sequencing; frameworks hold sequencing errors. In a few lines:
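In a synthetic yeast display library (Saccharomyces cerevisiae BJ5465), nanobody expression was induced with galactose for 36–48 hours. FACS gates were set low and high (top ~1%) using anti-HA fluorescence for expression and streptavidin fluorescence for binding of the Sf9 membrane reagent. Each polyreactivity label is drawn from the gate of origin.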
“QVQLVESGGGLGQAGGSLRLTCAASGSTFDYYAMGWYRPAPRKERELVAAISSSGSSTYYADSVKGRFTISRDIAKNTVYLQMNSLNPEDTAVYFCAIGTNYRDDYWGQGTQVTVSS”: the “polyreactivity (PSR sort gate)” value is “low polyreactivity”. Under “QVQLVESGGGLGQAGGSLSLSCAAYGRIYSRYAMGWYRQAPGKERELVAAINSGGITNYADSVKGRFTISRDNAKNTVYLQMNSLNPEDTAVYYCAAQARRSWGKYYYWGQGTQVPVSS” stands “high polyreactivity”; under “QVQLVESGGGLIQAGGSLRLSCAASGIIFYPYTMGWYRPAPGKERELVAAIRQSGTSTYYADSVKGRFTISRDNAKKTVYFQMNSLKPEDTAVYYCNADDHIYWRKGYDYWGQGTQVTVSS”, “low polyreactivity”.

Turning to “QVQLVESGGGLIQAGGSLRLSCAASGSNFRYYALGWYRQAPGKESELVAAISQSGGSTHYAESVKGRFTISRDNAKITVYLQMNSLKAEDTAVYYCAKHWGPGTQVTVSS”, the “polyreactivity (PSR sort gate)” value is given as “low polyreactivity”. The result for “QVQLVESGGGLIQAGGSLRLSCAASGSTFGTYTRGWYRQAPGKERELVAAIRSGGITYYADSVKGRFTISRDNAKNTVYLQMNSLKPEDTAVYYCAKQYTGEPAMEYWGQGTQVTVSS” reads “low polyreactivity”; that for “QVQLVESGGGLIQAGGSRRLSCAASGIIFYPYTMGWYRQARGKERELVAAIRQSGTSTYYADSVKGRFTISRDNAKNTVYLQMNSLKPEDTAVYYCNADDHIYWRKGYDYWGQGTQVTVSS”, “low polyreactivity”. The result for “QVQLVESGGGLLKAGGSLRLSCAASGRIFDIYNMGWYRPAPGKERELVAAISSSGGRTYYADSVKGRFTISRDNAKTTVYLQMKSVKPEDTAVYYGAARPSKYVGSRGYDYWGQGTQVTVSS” reads “high polyreactivity”. The result for “QVQLVESGGGLLQAGGRLRLSCAASVSIFTRYDMGWYRQAPGKEREFVAAISRGGGSTYYADSVKVRFTISLDNAKNTVYLQMISLKPENTAVYYCAPGVARYVKTASDYWGHGTQVTVSS” reads “high polyreactivity”. As to “QVQLVESGGGLLQAGGSLLLSCAASGITFYDNAMGWYRQAPGKERELVAGISYDGDSTYADSVKGRFTISRDNAKNTVYLQMNSLKPEDTAVYYCAALGPYEWLWAGDYWGQGTQVTVSS”, the “polyreactivity (PSR sort gate)” value is on record as “low polyreactivity”. Under “QVQLVESGGGLLQAGGSLPLSCAASGFTFVPYAMGLYIQAPGKERELDAAISSRGDSTYYADSVKGRFTISRDNAKNTVYLQMIRLSPEDTAFYYCIARTTPHMDYWGQGTQVTVSS” stands “low polyreactivity”; under “QVQLVESGGGLLQAGGSLRISCAASGSTFYYYAMGWYRQAPGKERELVAAISRGGGSTYYADSVKGRFTISRDNAKNTVYLQMNSLKPEDTAVYYCAARRVGGGFYTWRNPAYEYWGQGTQVTVSS”, “high polyreactivity”; under “QVQLVESGGGLLQAGGSLRLIWAASGIIFVKNSMGWYRQAPGKERELVAAITVSGSRTYYADSVKGRFTISRDNAKNTVYLQMNSLKPEDTAVYYCNAYPYYRGRNMDSWGQGTQVTVSS”, “high polyreactivity”.

For the sequence “QVQLVESGGGLLQAGGSLRLSCAASGFIFADNAMGRYIQAPGKERELVAGITSGGITNYADSVKGRFTISRDNAKNTVYLQMNSLKPEDSAVYYCAVYYRRWLSRYDYWGQGTQVTVSA”, the “polyreactivity (PSR sort gate)” value is listed as “low polyreactivity”. Under “QVQLVESGGGLLQAGGSLRLSCAASGFIFRFNAMGWYRQAPWTERELVAVIRWSSGSTYYADSVKGRFTISRDNAKNTVYLQMNSRKPEDTAVYYCAAVDDEYSIVWYDYWGQGTQVTVSA” stands “low polyreactivity”. The result for “QVQLVESGGGLLQAGGSLRLSCAASGFTFFIYAMGWYRQAPGKEREFVAAITGSGGSTYYADSVKGRFRISRDNPKNTVYLLMNSLKPEDTAVYYCNKLSYGRSGYWGQGTQVTVSS” reads “high polyreactivity”; that for “QVQLVESGGGLLQAGGSLRLSCAASGFTIYRYAMGWYRQAPGKERELVGAITGGGGSTYYADSVKGRFTISRDNAKNTVYLQMNSLKPEDTAVYYCAVDVYHKGQYRWSYVYWGQGTQVTVSS”, “low polyreactivity”; that for “QVQLVESGGGLLQAGGSLRLSCAASGGTFTWYAMGWYRQAPGKERELVAAISSDGSTYYADSVKGRFTISRDNAKNTVYLQMNSLKPEDTAVYYCAAYSSWGGFDYWGQGTQVTVSS”, “low polyreactivity”.

“QVQLVESGGGLLQAGGSLRLSCAASGITFYRNAMGWYRQAPGKERELVAAITWSGGSTYYADSVKGRFTISRDYAKNTVYLQMNSLKPEDSAVYYCNADYRHRYYWGQGTQVTVSS”: the “polyreactivity (PSR sort gate)” value was “high polyreactivity”.

With “QVQLVESGGGLLQAGGSLRLSCAASGLTFVGYDMGWYRQAPGKERELVAAISTGGGSTYYADSVKGRFTISRDNAMNTVYLKMNSLKPEDTAVYYCNKLRLHGDRYDYWGQGTQVTVSS”, the “polyreactivity (PSR sort gate)” value is reported as “high polyreactivity”. Under “QVQLVESGGGLLQAGGSLRLSCAASGNTFAYNTMGWYIQAPGKERELVAAILTRGGSTYYADSVKGRFTISRDNAKKTVYLQMNSLNREDTAVYYGAADYRFHGYWSYDYWGQGTQVTVSS” stands “low polyreactivity”. For “QVQLVESGGGLLQAGGSLRLSCAASGRIFGRNTKGWYRQAPGKERELVAVISWRGGSTYYADSVKGRFTISRDNAKNSVYLQMNSLKPEDTAVYYCNAKYPFSRRGDYWGQGTQVTVSS”, the “polyreactivity (PSR sort gate)” value is recorded as “high polyreactivity”.

With “QVQLVESGGGLLQAGGSLRLSCAASGRTFGHYAMGWYRQAPGKEREFVAAITRGGGRTYYADSVKGRFTISRDNAKNTVYLQMNSLKPEDTAVYYCARKQYWGYDYWGQGTQVTVSS”, the “polyreactivity (PSR sort gate)” value is “low polyreactivity”. Consider “QVQLVESGGGLLQAGGSLRLSCAASGRTFKSYTMGWYRQAPGKERELVAAIRASGGITYYADSVKGRFTISRDNAKNTVYLQMNSLKPEDTAVYYCAARPRTRYDYWGQGTQVTVSS”, for which the “polyreactivity (PSR sort gate)” value is “high polyreactivity”. Under “QVQLVESGGGLLQAGGSLRLSCAASGSISGYYAMGWYRQAPGKERELVASIRYTGARTYYADSVKGRFTISRDNAKNTVYLQMNSLKPEDTAVYYCAADVKRDRVWGGDYWGQGTQVTVSS” stands “low polyreactivity”. The result for “QVQLVESGGGLLQAGGSLRLSCAASGSIYTPYAMGWSRQAPGKERELVATITQSGSSTYYADSVKGRFTISRDNAKNSVYLQMNSLKPEDTAVYYCAADVQNISFDYWGQGTQVTVSS” reads “low polyreactivity”; that for “QVQLVESGGGLLQAGGSLRLSCAASGSMFGLYAMGWYRQAPGKERELVAAISKSGGSTYYADSVKGRFTISRDNAKNTVYLQMNSLKPEDTAVYFCAARQYPRAGFDYWGQGTQVTVSS”, “high polyreactivity”; that for “QVQLVESGGGLLQAGGSLRLSCAASGSTCHRNTMGWSRQAPGKESELVAGISLRGVRTYYADSVKSRFTISRDNAKNTVYLQMNSLKPEDTAVYYCAAGGPYTRNFKLGYWGQGTQVTVSS”, “high polyreactivity”. In the case of “QVQLVESGGGLLQAGGSLRLSCAASGSTSPANAMGWYRQAPGKERELVAVINSGGGTNYADSVKGRFTISRDNAKNTVYLQMNCLKPEDTAVYYCAKGYRRSFIGYWYLKYGYWGQGSQVTVSS”, the “polyreactivity (PSR sort gate)” value was “high polyreactivity”.

For “QVQLVESGGGLLQAGGSLRLSCAASVSIFDSYAMGWYREAPGKERELVAVISESGGTTYNADSVKGRFTISRDNAKNTVYLQMNSLKPEDTAVYYCAAVWYFQFGVWGYYWGQGTQVTVSS”, the “polyreactivity (PSR sort gate)” value was “low polyreactivity”. Under “QVQLVESGGGLLQAGGSLRLSCAASVSIFEYYPMGWYRPAPGKERELVADITWSGGSTYYADSVKGRFTISRDNAKNTVDLQMNSLKPEDSAVYYCAKGYYVYGIFHRFGYYWGQGTQVTVSS” stands “high polyreactivity”; under “QVQLVESGGGLLQAGGSLRLSCADSGRTFGGYSMGWYRQATGKERELVAAISKRSGSTYYADSVKGRFTISRVNAKNTVYLQMNSLKPEDTAVYYCNKVWFQRSVQPVEYDYWGQGTQVTVSS”, “high polyreactivity”; under “QVQLVESGGGLLQAGGSLRVSCAASGSIFHENAMGWYRQAPGKERELVAAIDQTGSTYADSVKGRFTISRDNAKNTVYLQMNSLKPEDTAVYYCAKGDVSLDYPSLEFDYWGQGSQVTVSS”, “low polyreactivity”. Under “QVQLVESGGGLLQAGGSRRLSCAASGRTFYSYGMGWYRRAPGKERELVARNTWSGGTYYADSVKGRFTISRDNAKNTVYLQMNSLKPEDTAVYYCAKRSYYWEYYYWGQGTQVTVSA” stands “high polyreactivity”. Under “QVQLVESGGGLLQAGGTLRLSCAASGSTFSKNAMGWYRQAPGKERELVAAISSRGGNTYYADSVKGRFTISRDNAKNTVYLQMNSLKPEDTAVYYCAKALRTYQRTGWYDYWGQGTQVTVSS” stands “high polyreactivity”; under “QVQLVESGGGLLQAGVSLRLSCAASGRIYSKYAMGRYRQAPGKERELVAAITYSGGSTYYADSVKGRFTISRDNAKNTVYLQMNSLKPEDSAVYYCAAVHCTSYSKWFGYWGQGTQVSVSS”, “low polyreactivity”.

Take “QVQLVESGGGLVEAGGSLRLICAASGSIFYFYGMGWYRQAPGKEREVVAAITYSGGSTYYADSVKGRYTISRDNAKNTVDLQMNSLIPEDTAVYYCNADSVLELYWKMDYWGQGTQVTVSS”: the “polyreactivity (PSR sort gate)” value is given as “low polyreactivity”. The result for “QVQLVESGGGLVEAGGSLRLSCAASARTFIGNAMVWYRQAPGKERELVAGIDSDGSTNYADSVNGRFTSSRDNAKNTVYLQMNSLKPEDTAVYYCAAVQGYRFYEYYYWGQGTQVTVSS” reads “low polyreactivity”; that for “QVQLVESGGGLVEAGGSLRLSCAASGFTFYHNAMGWYRPAPGKERELVAAISSGGTTNYADSVKGRFTISRDNAKNTVYLQMNSLTPEDTAVYYCAARGWGPTRAYDYWGQGTQVTVSS”, “high polyreactivity”.

Turning to “QVQLVESGGGLVEAGGSLRLSCAASGLTFIVKAIGWYRQAPGKEREFVAAIRSGDGNTHYADSLKGRYTISRDNAKNTVYFQMNSLKPVDTAVYYCNAGFPRSYRFDYWGQGTQVTVSS”, the “polyreactivity (PSR sort gate)” value is “high polyreactivity”. The result for “QVQLVESGGGLVEAGGSLRLSCAASGRIFKVYAMGWYRQGPGKERELVAAISRSCGSTYYADSVKGRFTISRDKAKITVSLQMNSLKPEDTAVYYCNAYFVSGHAGGYDYWGQGTQVTVSS” reads “high polyreactivity”. Under “QVQLVESGGGLVEAGGSLRLSCAASGRTFQYYPMGWYRQAPGKERDFVAAITRTGARTYYADSVKGRFTISRDNAKNTVYLQMYSLKPEDTAVYYCAISLTFYSWRDYGYWGQGSQVTVSS” stands “high polyreactivity”.
